Reference: publication doi:10.1101/2023.03.13.532365

Target: *DsCDTCM, exported bifunctional cyclohexadienyl dehydratase-chorismate mutase fusion enzyme of Duganella sacchari (Duganella sacchari)
Test: crystal structure

*DsCDTCM, exported bifunctional cyclohexadienyl dehydratase-chorismate mutase fusion enzyme of Duganella sacchari
stoichiometry N: 2
